Legend:
Assay in all cases: forward yeast two-hybrid, β-galactosidase overlay assay
[1] = molecular target: T1, JNK1 point mutant Leu-131-Arg, fused to the B42 activation domain (pJG4-5) (human, UniProt Q91Y86 1-384 (mouse entry))
T1 construct: Full-length JNK1 single point mutant; two-hybrid prey; also called L131R; L131→R131

[2] = molecular target: T2, JNK1 point mutant Tyr-320-His, fused to the B42 activation domain (pJG4-5) (human, UniProt Q91Y86 1-384 (mouse entry))
T2 construct: Full-length JNK1 single point mutant; two-hybrid prey; also called Y320H; Y320→H320

[3] = molecular target: T3, JNK1 point mutant Arg-309-Trp, fused to the B42 activation domain (pJG4-5) (human, UniProt Q91Y86 1-384 (mouse entry))
T3 construct: Full-length JNK1 single point mutant; two-hybrid prey; also called R309W; R309→W309

Measured: binding result

B1: TI-JIP (Truncated Inhibitor of JNK based on JIP) fused to the LexA DNA-binding domain, from pGILDA-TI-JIP (peptide)
chain: MKALTARQQEVFDLIRDHISQTGMPPTRAEIAQRLGFRSPNAAEEHLKALARKGVIEIVSGASRGIRLLQEEEEGLPLVGRVAAGEPLLAQQHIEGHYQVDPSLFKPNADFLLRVSGMSMKDIGIMDGDLLAVHKTQDVRNGQVVVARIDDEVTVKRLKKQGNKVELLPENSEFKPIVVDLRQQSFTIEGLAVGVIRNGDWLRPKRPTTLNLF
notes: 11-residue peptide expressed in yeast as a C-terminal fusion with LexA (two-hybrid bait); also called bait
no binding: [1] | [2] | [3]
